These results are taken from patent publication US20250009913A1, “COMPOUNDS FOR USE IN NON-COVALENT SCAFFOLD AND METHODS RELATED THERETO” (NORTH CAROLINA STATE UNIVERSITY, priority 2023, published 2025).

Where two headings read alike, the source gives them in different places.

A short description of data set [1]: Fluorescence spectroscopy of aggregation (intensity in PBS vs DMSO). The data set is classed as physicochemical. To be noted: 316 nM in PBS; incomplete aggregation. How it is done: Aggregation of 5′ at low concentrations was analyzed by fluorescence spectroscopy. The ratio of maximum fluorescence intensity of samples in PBS to that of sample in DMSO was plotted against concentration (FIG. 9). The ratio decreased as the concentration increased in the range of 1.0 nM to 316 nM, which implies that 5′ aggregates more in PBS as the concentration increases. Even with the concentration of 316 nM, the sample didn't aggregate completely in PBS and retained ˜30% fluorescence. The long PEG chain in 5′ provides the compound with good hydrophilicity and may contribute to incomplete aggregation. Fluorescence intensity at higher or lower concentrations was not measured due to the detection range of the instrument. The porphyrin-peptide conjugate without PEG chain, 4′, was examined by fluorescence intensity as well. Samples at 31.6 nM, 100 nM, and 316 nM were analyzed and the fluorescence intensity ratio of all samples was below 2%. The results imply that 4′ almost aggregates completely even at a very low concentration.
Fluorescence spectroscopy. Samples were dissolved in PBS and DMSO at different concentrations. The excitation wavelength was 419 nm for all samples in DMSO, 415 nm for 5′ in PBS, and 419 nm for 4′ in PBS. The intensity ratio was calculated with the maximum emission of each sample. […]

A short description of data set [2]: Absorption spectroscopy in PBS or DMSO (solubility / aggregation). To be noted: PBS; absorption spectra 0.1-100 μM; read-out: soluble in PBS with essentially no aggregation or assembly. In kind it is physicochemical. The procedure: Samples of 5′ at 1 μM in DMSO or PBS were analyzed by absorption spectroscopy (FIG. 8, panel A). […] In PBS, two broad peaks at 417 nm and 455 nm were observed, indicating aggregation of the sample at 1 μM. Samples of 4′ at 1 μM in DMSO or PBS were also analyzed for comparison (FIG. 8, panel B). The spectrum of the sample in DMSO was identical with 5′, while in PBS the Soret band spilt into 3 broad peaks at 409 nm, 419 nm and 455 nm. The different spectra between 4′ and 5′ might result from different ways of porphyrin stacking, as 4′ doesn't have the long PEG chain in its structure.
Samples of 0.1 μM, 1 μM, 10 μM and 100 μM were analyzed using cuvettes with a pathlength of 10 cm, 1 cm, 0.1 cm and 0.01 cm, respectively. There is only a very slight broadening of the absorption bands at 100 μM, and at all concentrations the general spectroscopic features characteristic of the porphyrin are retained.

Data set [3] concerns the target T1, alkaline phosphatase (ALP) (Bos taurus, UniProt P19111).
T1 construct: Alkaline phosphatase from bovine intestinal mucosa was purchased from Sigma-Aldrich; purchased Sigma-Aldrich; host or cells: bovine intestinal mucosa (tissue-derived)
Description: Enzymatic cleavage of 5 by ALP monitored by reverse-phase HPLC. In kind it is biochemical, bovine. The conditions noted are these: 200 μM in PBS, 2 U/mL ALP, 37° C., 6-hour incubation. The procedure:
The enzymatic cleavage was monitored with reverse-phase high performance liquid chromatography. A solution of 200 μM 5 in PBS was treated with 2 U/mL ALP and incubated at 37° C. A small part of sample was taken from the reaction at different time points (30 min, 1 h, 2 h, 4 h, 6 h and 8 h) and was analyzed by HPLC (5-95% MeCN/10 mM NH4HCO3 in H2O) (FIG. 7). The 3 peaks in the chromatograph after 30 min of ALP treatment represents compound 5 (peak 1), partially cleaved product (peak 2) and fully cleaved product (peak 3). The reaction almost completes after 6-hour incubation (>95% by integration). The LC trace of the standard dephosphorylated sample 5′ is shown for comparison. Attempts were made to get LC-MS data for 5 but no mass signal was detected. This might result from the poor solubility of 5 in the acidic mobile phase (MeCN/H2O, 0.1% FA).
Reverse phase high performance liquid chromatography. A solution of 200 μM 5 in PBS was treated with 2 U/mL ALP and incubated at 37° C. A small part of sample was taken from the reaction at different time points (30 min, 1 h, 2 h, 4 h, 6 h and 8 h) and was analyzed by RP-HPLC with an Agilent Zorbax SB-C18 column (5 μm, 4.6×150 mm). The sample was run for 15 min with a linear gradient (5-95% MeCN/10 mM NH4HCO3 in H2O) and detected with a diode-array detector at 420 nm.

Data set [4] has as its system alkaline phosphatase (ALP). To be noted: 10 μM in PBS, 10 min at 10000 rpm. The procedure: Samples of 5 (10 μM in PBS) with or without ALP treatment were centrifuged with Amicon centrifugation devices (molecular cutoff 50 kDa). […] Solutions collected in the bottom or top tube for the sample that underwent enzyme treatment were analyzed with absorption spectroscopy (FIG. 5).

Data set [5] concerns the target T1, alkaline phosphatase (ALP). Description: Enzymatic assay of 5 with alkaline phosphatase, aggregation followed by absorption spectroscopy. In kind it is biochemical, bovine. How it is done: The stock solution of 5 in DMSO was diluted with PBS to prepare sample solutions with different concentrations (0.10 μM, 0.20 μM, 0.50 μM, 1.0 μM, 2.0 μM, and 5.0 μM). Each sample was treated with 2 U/mL of alkaline phosphatase (ALP) and incubated overnight at 37° C. The absorption spectra across the range 300-700 nm, where the porphyrin absorbs strongly, were measured before and after the enzyme treatment for each sample (FIG. 4, panels A-F). For samples with concentration lower than 0.50 μM (FIG. 4, panels A, B), the intensity of the Soret band of 5 at 420 nm decreased after enzyme treatment, yet precipitation or other signs of aggregation were not observed. When the concentration of the sample was equal to or higher than 0.50 μM (FIG. 4, panels C-F), the intensity of the Soret peak at 420 nm decreased and a new peak appeared at 455 nm after the enzyme treatment. The new peak at 455 nm indicates the aggregation of the sample upon the treatment of ALP. The Q band (at ˜550 nm) also underwent a bathochromic shift and broadening, albeit of lesser magnitude than that of the higher-energy Soret band. Compound 5′, which lacks the two phosphoester moieties, is prone to aggregation in PBS, consistent with the observed results for ALP treatment of 5. The change in the color of the sample was also observed. After the overnight incubation, the color of the sample changed from pink to orange.
To confirm that the peak appeared after enzyme treatment was caused by aggregation, DMSO was added to the sample of 5 (5.0 μM in PBS) after enzyme treatment to disaggregate the sample. After adding DMSO to dilute the solution in half, the peak at 455 nm almost disappeared and the intensity of the peak at 420 nm increased. Color changes of the solution were observed during the treatment, with the solution appearing pink initially (indicating a monomeric state), then yellow after treatment with ALP (indicating aggregation), and finally returning to pink after dilution with DMSO, albeit a lighter pink than the initial solution, due to dilution (indicating disaggregation). The result further confirmed that compound 5 aggregates in aqueous solution after the enzyme treatment.
Enzymatic assay. The stock solution of 5 in DMSO (2 mM) was diluted with PBS to prepare sample solutions with different concentrations. The final concentrations of 5 in each sample were 0.20 μM, 0.50 μM, 1.0 μM, 2.0 μM, 5.0 μM and 10 μM, respectively. A solution of alkaline phosphatase from bovine intestinal mucosa (10 μL, 100 U/mL in PBS) was added to each sample solution to reach a final volume of 500 μL (PBS containing 0.5% DMSO). The reaction mixture was incubated overnight at 37° C. Then each sample was analyzed by absorption spectroscopy. Samples without the treatment of ALP were also analyzed to serve as controls.
To confirm the aggregation of the dephosphorylated 5 in PBS, 500 μL of DMSO was added to one of the treated samples (10 μM) and was then analyzed by absorption spectroscopy.

T1 sequence (P19111 20-506 limits assumed): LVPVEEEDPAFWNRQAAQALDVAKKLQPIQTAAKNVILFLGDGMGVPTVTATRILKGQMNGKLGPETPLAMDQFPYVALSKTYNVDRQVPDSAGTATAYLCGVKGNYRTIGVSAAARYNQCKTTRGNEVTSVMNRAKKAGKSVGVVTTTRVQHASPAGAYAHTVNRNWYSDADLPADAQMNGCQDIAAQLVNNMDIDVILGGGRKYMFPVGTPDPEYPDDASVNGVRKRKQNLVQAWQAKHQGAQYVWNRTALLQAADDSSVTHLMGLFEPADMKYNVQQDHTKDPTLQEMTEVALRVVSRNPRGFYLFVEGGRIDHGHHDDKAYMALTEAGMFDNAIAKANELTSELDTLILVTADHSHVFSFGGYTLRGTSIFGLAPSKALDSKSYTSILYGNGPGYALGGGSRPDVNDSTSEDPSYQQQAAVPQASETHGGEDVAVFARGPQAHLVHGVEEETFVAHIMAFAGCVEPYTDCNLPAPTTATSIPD

Take PEG24-GffY-OH [Compound 5′]: in data set [1], the “fluorescence retained in PBS (relative to DMSO)” value is about 30%.
Regarding `COCCOCCOCCOCCOCCOCCOCCOCCOCCOCCOCCOCCOCCOCCOCCOCCOCCOCCOCCOCCOCCOCCOCCOCCn1cc(-c2ccc(-c3c4nc(cc5ccc([nH]5)c(-c5c(OCc6cn(CCC(=O)NCC(=O)N[C@H](Cc7ccccc7)C(=O)N[C@H](Cc7ccccc7)C(=O)N[C@@H](Cc7ccc(OP(=O)(O)O)cc7)C(=O)O)nn6)cccc5OCc5cn(CCC(=O)NCC(=O)N[C@H](Cc6ccccc6)C(=O)N[C@H](Cc6ccccc6)C(=O)N[C@@H](Cc6ccc(OP(=O)(O)O)cc6)C(=O)O)nn5)c5nc(cc6ccc3[nH]6)C=C5)C=C4)cc2)nn1` [Compound 5, PEG24-GffY(p)-OH], the solubility in data set [2] was at least 100 µM. Further, in data set [3], the “completion of dephosphorylation reaction by HPLC integration” value is recorded as over 95%. Besides, the “passage through 50 kDa membrane” value in data set [4] (after ALP treatment) is “didn't pass through the membrane”; in data set [4] (without ALP treatment), “passed through the 50 kDa membrane”. Further, the “behaviour of activated form at very low concentration” value in data set [5] (0.1 μM) was “came out of solution without forming a gel superstructure”. The “concentration at which new peak at 455 nm (aggregation) appears after enzyme treatment” value in data set [5] (PBS with 0.5% DMSO, 2 U/mL ALP, overnight 37° C.) is at least 500 nM. The reversibility of aggregation entry in data set [5] (after ALP treatment in PBS, upon addition of DMSO) was “reversible”. The “precipitation after high-speed centrifugation or long-time storage” value in data set [5] (after ALP treatment, centrifugation >10000 rpm or storage >1 month) is “No precipitation or microcrystals were observed”. In addition, the “formation of microcrystals or precipitates upon ALP treatment” value in data set [5] (concentration as high as 200 μM) is listed as “did not form microcrystals or precipitates”.
